# Laboratory results: patent publication US10736970B2, “Polypeptide complex of titin-telethonin beta-pleated sheet structure as polypeptide drug carrier, method of using the polypeptide complex, and fusion protein complex thereof” (TIANJIN INSTITUTE OF INDUSTRIAL BIOTECHNOLOGY, CHINESE …, priority 2015, dated 2020)
# B1: GLRecom: Single fusion protein: GLP-1(8G)-Z1Z2, Telethonin beta-pleated sheet region and second Z1Z2 connected via linkers (SEQ ID NO: 20), 60.0 kDa (protein)
# chain: MKHHHHHHPMSDYDIPTTENLYFQHGEGTFTSDVSSYLEGQAAKEFIAWLVKGRGGGGGSGGGGSGGGGSAMATQAPTFTQPLQSVVVLEGSTATFEAHISGFPVPEVSWFRDGQVISTSTLPGVQISFSDGRAKLTIPAVTKANSGRYSLKATNGSGQATSTAELLVKAETAPPNFVQRLQSMTVRQGSQVRLQVRVTGIPTPVVKFYRDGAEIQSSLDFQISQEGDLYSLLIAEAYPEDSGTYSVNATNSVGRATSTAELLVQGSGSGSAPGTPGGGGSGGGGSGGGGSMATSELSSEVSEENSERREAFWAEWKDLTLSTRPEEGSSLHEEDTQRHETYHQQGQSQVLVQRSPWLMMRMGILGRGLQEYQLPYQRVLPGASGPAGSPTGSGPGSAGSGPGSAGMATQAPTFTQPLQSVVVLEGSTATFEAHISGFPVPEVSWFRDGQVISTSTLPGVQISFSDGRAKLTIPAVTKANSGRYSLKATNGSGQATSTAELLVKAETAPPNFVQRLQSMTVRQGSQVRLQVRVTGIPTPVVKFYRDGAEIQSSLDFQISQEGDLYSLLIAEAYPEDSGTYSVNATNSVGRATSTAELLVQG
# Experiments:
# [1] = literature / background value; cited from earlier work
# [2] = test system: SD rats; test: Insulin content in rat plasma during OGTT; type: in vivo; conditions: single i.p. 25 nmol/kg
# Method: (§1) The rats in the first three groups were given 25 nmol/kg by intraperitoneal injection, the rats in the PBS group were given the same volume of PBS, and the blood glucose was measured by a blood glucose meter. After 30 min, 2 g glucose/kg body weight was given by oral gavage, which was assumed to occur at 0 min, and then the blood glucose level was measured respectively at 10, 30, 60, 90, and 120 min. The area under curve (AUC) was calculated using Graphpad Prism 6.0 software. During the process, blood was taken from the tail vein respectively at 0, 10, and 30 min, added to a centrifuge tube containing EDTA-Na2, and centrifuged at 4000 rpm for 10 min. The supernatant was collected, and the insulin content was measured by using the Rat/Mouse Insulin Elisa kit (Millipore).
# In the OGTT test of each group, blood was taken from the tail vein of rats at a time ranging from 10 to 30 min, and added dropwise to an Ep tube containing EDTA-Na2. The plasma was removed, and the insulin content was determined by using the Insulin Elisa kit (Millipore).
# (§2) During the process, blood was taken from the tail vein at a time ranging from 10 to 30 min, added to a centrifuge tube containing EDTA-Na2, and centrifuged at 4000 rpm for 10 min. The supernatant was collected, and the insulin content was measured by using the Rat/Mouse Insulin Elisa kit (Millipore).
# [3] = test system: SD rats; test: Oral glucose tolerance test (OGTT) in rats, blood glucose; type: in vivo, rat; conditions: single i.p. 25 nmol/kg
# Method: as §1
# SD rats of about 250 g were randomized into 4 groups (n=5), including a 1 nmol/kg group, a 5 nmol/kg group, a 25 nmol/kg group, and a PBS group.
# The animals were allowed to free access to food for 12 h, and then fasted for 12 h. Then, OGTT was carried out. […]
# The blood glucose level was measured by a blood glucose meter, and this was assumed to occur at −30 min. […] Then, the blood glucose was measured respectively at 10, 30, 60, 90, and 120 min. The area under curve (AUC) was calculated using Graphpad Prism 6.0 software.
# [4] = test system: C57BL/6 mice; test: Insulin content during OGTT in C57BL/6 mice; type: in vivo, mouse; conditions: i.p. 10 nmol/kg
# Method: as §2
# [5] = test system: C57BL/6 mice; test: OGTT in C57BL/6 mice, blood glucose; type: in vivo, mouse; conditions: i.p. 10 nmol/kg
# Method: C57BL/6 mice of about 25 g were randomized into 3 groups (n=5), including a PBS group, a Z1Z2/GLTe-G group, and a GLRecom group. The animals in the Z1Z2/GLTe-G group and the GLRecom group were given the Z1Z2/GLTe-G and GLRecom respectively by intraperitoneal injection at a dosage of 10 nmol/kg body weight, and the animals in the PBS group were given the same volume of PBS. The blood glucose level was measured by a blood glucose meter, and this was assumed to occur at −30 min. After 30 min, 2 g glucose/kg body weight was given by oral gavage, and this was assumed to occur at 0 min. Then, the blood glucose was measured respectively at 10, 30, 60, 90, and 120 min. The AUC was calculated by using the Graphpad Prism 6.0 software.
# [6] = rat, in vivo
# Method: Blood was sampled from the tail respectively at 0, 0.5, 1, 1.5, 2, 4, 6, and 10 h, and dripped into an Ep tube pretreated with EDTA-Na2. A DPP-4 inhibitor was immediately added (in 30 s) after the blood was sampled.
# Then, blood was taken respectively at 1, 2, 4, 8, and 24 h, and added dropwise to an Ep tube pretreated with EDTA-Na2.
# (§3) 1 nmol GLZ/TeN was administered to the SD rats (about 250 g) by intravenous (i.v) injection at the tail and by subcutaneous injection (s.c), and this was assumed to occur at 0 h. Blood was sampled from the tail vein of the rats respectively at 0.05, 0.5, 2, 4, 8, 11, 24, and 48 h, and dripped into an Ep tube pretreated with EDTA-Na2. The protease inhibitor protinin was immediately added (in 30 s) after the blood was sampled.
# as §3, with “2.8” for “1”, “GLRecom” for “GLZ/TeN”, “tail,” for “tail and by subcutaneous injection (s.c),”, “5, 10,” for “4, 8, 11,”, “a centrifugation” for “an Ep”
molecule,measurement,setting,value
Peptide Tyrosin-tyrosin [PYY],in-vivo half-life period of native peptide,[1],8 min
"CC[C@H](C)[C@H](NC(=O)[C@H](Cc1ccccc1)NC(=O)[C@H](CCC(=O)O)NC(=O)[C@H](CCCCN)NC(=O)[C@H](C)NC(=O)[C@H](C)NC(=O)[C@H](CCC(N)=O)NC(=O)CNC(=O)[C@H](CCC(=O)O)NC(=O)[C@H](CC(C)C)NC(=O)[C@H](Cc1ccc(O)cc1)NC(=O)[C@H](CO)NC(=O)[C@H](CO)NC(=O)[C@@H](NC(=O)[C@H](CC(=O)O)NC(=O)[C@H](CO)NC(=O)[C@@H](NC(=O)[C@H](Cc1ccccc1)NC(=O)[C@@H](NC(=O)CNC(=O)[C@H](CCC(=O)O)NC(=O)[C@H](C)NC(=O)[C@@H](N)Cc1c[nH]cn1)[C@@H](C)O)[C@@H](C)O)C(C)C)C(=O)N[C@@H](C)C(=O)N[C@@H](Cc1c[nH]c2ccccc12)C(=O)N[C@@H](CC(C)C)C(=O)N[C@H](C(=O)N[C@@H](CCCCN)C(=O)NCC(=O)N[C@@H](CCCNC(=N)N)C(=O)NCC(=O)O)C(C)C [GLP-1, Glucagon-like peptide 1, reference compound]",blood insulin content during OGTT,[2],significantly increase the blood insulin content
same,period of time of effective blood glucose control in OGTT,[3],30 min
same,effect on blood glucose level in OGTT,[3]; 2 g glucose/kg oral after 30 min,significantly reduce the blood glucose level
B1,level of insulin secretion,[4],significantly enhance the level of insulin secretion
same,AUC of blood glucose in OGTT,[5],significantly reduced
same,blood glucose reducing effect in OGTT,[5]; 2 g/kg glucose,significant blood glucose reducing effect
same,blood glucose level at 120 min in OGTT,[5]; 120 min,still significantly reduced
same,half-life period after intravenous injection,[6],13.4 ± 0.8 h
same,half-life period relative to Z1Z2/GLTe-G complex (4 h),[6]; iv,more than 3 times
